T1: human FcγRIIb extracellular domain, C-terminal His-tag (human, UniProt P31994 43-217)
T1 construct: Soluble extracellular domain expressed in FreeStyle 293 cells; also called FcgRIIb; not shown: His-tag added to the C-terminus
T1 sequence: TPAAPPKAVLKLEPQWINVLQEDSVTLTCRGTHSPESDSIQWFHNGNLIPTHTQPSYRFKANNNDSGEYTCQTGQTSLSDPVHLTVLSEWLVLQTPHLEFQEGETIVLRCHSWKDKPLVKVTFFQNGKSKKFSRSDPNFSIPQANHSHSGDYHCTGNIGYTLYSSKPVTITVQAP

T2: human FcγRIIaR extracellular domain, C-terminal His-tag (human, UniProt P12318 34-217)
T2 construct: Soluble extracellular domain expressed in FreeStyle 293 cells; also called FcgRIIaR; human FcγRIIa (type R); not shown: His-tag added to the C-terminus
T2 chain: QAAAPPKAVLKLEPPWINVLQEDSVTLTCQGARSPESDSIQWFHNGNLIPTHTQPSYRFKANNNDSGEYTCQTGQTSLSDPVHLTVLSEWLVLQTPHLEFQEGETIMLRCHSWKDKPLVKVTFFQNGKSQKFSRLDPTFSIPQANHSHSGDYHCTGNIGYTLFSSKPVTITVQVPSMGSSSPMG

T3: human FcγRIIaH extracellular domain, C-terminal His-tag (human, UniProt P12318 34-217)
T3 construct: Soluble extracellular domain expressed in FreeStyle 293 cells; also called FcgRIIaH; human FcγRIIa (type H); not shown: His-tag added to the C-terminus
T3 sequence: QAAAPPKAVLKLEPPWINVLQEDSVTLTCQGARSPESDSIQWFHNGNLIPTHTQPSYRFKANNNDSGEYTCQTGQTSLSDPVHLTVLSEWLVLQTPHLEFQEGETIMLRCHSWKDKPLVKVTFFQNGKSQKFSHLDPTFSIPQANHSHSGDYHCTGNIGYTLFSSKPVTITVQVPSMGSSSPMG


How the values were obtained:
[1] = biological target: T4, human FcγRIIIaV extracellular domain, C-terminal His-tag (human, UniProt P08637 17-208); experiment: SPR (BIACORE); KD of SG1 divided by KD of the variant
T4 construct: Soluble extracellular domain expressed in FreeStyle 293 cells; also called FcgRIIIaV; not shown: His-tag added to the C-terminus
Procedure: (§1) The kinetic analysis of interactions between these antibodies and FcγR was carried out using BIACORE® T200 or BIACORE® 4000 (GE Healthcare). HBS-EP+ (GE Healthcare) was used as the running buffer, and the measurement temperature was set to 25° C. A chip produced by immobilizing Protein A. Protein A/G or mouse anti-human IgG kappa light chain (BD Biosciences) onto a Series S Sensor Chip CM4 or CM5 (GE Healthcare) by the amine-coupling method was used. […] After the measurement, the antibody captured on the chip was washed off by allowing reaction with 10 mM glycine-HCl, pH1.5 and 25 mM NaOH so that the chip was regenerated and used repeatedly. The sensorgrams obtained as measurement results were analyzed by the 1:1 Langmuir binding model using the BIACORE® Evaluation Software to calculate the binding rate constant ka (L/mol/s) and dissociation rate constant kd (l/s), and the dissociation constant KD (mol/L) was calculated from these values. […] Regarding such interactions, KD values were calculated using the following 1:1 binding model described in BIACORE® T100 Software Handbook BR1006-48 Edition AE.
(§2) Furthermore, the substitutions used in Example 29 for improving antibody half-life and reducing binding to rheumatoid factor were introduced into human FcγRIIb-enhanced Fc variants and their affinity against human FcγRs were analyzed (Table 29). In this SPR analysis, all the data were obtained using mouse anti-human IgG kappa light chain for capturing the antibodies of interest.

[2] = biological target: T1, human FcγRIIb extracellular domain, …; experiment: as above
Procedure: as §1, §2

[3] = biological target: T2, human FcγRIIaR extracellular domain, …; experiment: as above
Procedure: as §1, §2

[4] = biological target: T3, human FcγRIIaH extracellular domain, …; experiment: as above
Procedure: as §1, §2

[5] = biological target: T4, human FcγRIIIaV extracellular domain, …; experiment: SPR (BIACORE), antibody captured by mouse anti-human IgG kappa light chain, FcgR extracellular domain as analyte, 25 C
Procedure: as §1, §2

[6] = biological target: T1, human FcγRIIb extracellular domain, …; experiment: as above
Procedure: as §1, §2

[7] = biological target: T2, human FcγRIIaR extracellular domain, …; experiment: as above
Procedure: as §1, §2

[8] = biological target: T3, human FcγRIIaH extracellular domain, …; experiment: as above
Procedure: as §1, §2

T4 sequence (P08637 17-208 F176V): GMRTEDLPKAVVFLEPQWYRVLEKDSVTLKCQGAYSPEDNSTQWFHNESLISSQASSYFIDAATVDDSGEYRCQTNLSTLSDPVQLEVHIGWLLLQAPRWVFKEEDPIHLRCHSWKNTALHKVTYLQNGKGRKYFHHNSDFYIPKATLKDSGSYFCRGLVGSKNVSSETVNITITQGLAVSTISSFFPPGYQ

| KD fold for humanFcgRs (SG1 = 1) [1] [fold] | KD fold for humanFcgRs (SG1 = 1) [2] [fold] | KD fold for humanFcgRs (SG1 = 1) [3] [fold] | KD fold for humanFcgRs (SG1 = 1) [4] [fold] | Kd [5] [µM] | Kd [6] [µM] | Kd [7] [µM] | Kd [8] [µM] | Binder |
| --- | --- | --- | --- | --- | --- | --- | --- | --- |
| 1 | 1 | 1 | 1 | 0.72 | 4.7 | 1.2 | 0.97 | MS103240H795-SG1/M103202L1045-SK1 (antibody, human IgG1, kappa, Parent constant region SG1 (human IgG1-like); also called MS1032LO19-SG1; copies: 2 + 2) heavy: not shown light: DIVMTQSPATLSLSPGERATLSCTTSQSVYHENWLSWFQQKPGQPPKLLIYWASTLAYGVPSRFSGSGSGTDFTLTISSLQPEDAATYYCAGGYGGGRYAFGQGTKVEIKRTVAAPSVFIFPPSDEQLKSGTASVVCLLNNFYPREAKVQWKVDNALQSGNSQESVTEQDSKDSTYSLSSTLTLSKADYEKHKVYACEVTHQGLSSPVTKSFNRGEC |
| 0.001 | 4.7 | 0.04 | 0.007 | 590 | 1 | 32 | 130 | MS103240H795-TT66/M103202L1045-SK1 (antibody) heavy: QVQLVESGGGLVQPGGSLRLSCAVSGIDLSHDDISWVRQAPGKGLEWVSIISYAGSTYYASWAKGRLTISKDTSKNQVVLTMTNMDPVDTATYYCARGVPAYSHGGDLWGQGTLVTVSSASTKGPSVFPLAPSSKSTSGGTAALGCLVKDYFPEPVTVSWNSGALTSGVHTFPAVLQSSGLYSLSSVVTVPSSSLGTQTYICNVNHKPSNTKVDKKVEPKSCDKTHTCPPCPAPELLGGDSVFLFPPKPKDVLMISRTPEVTCVVVDVSHEDPEVKFNWYVDGVEVHNAKTKPREEQYNSTYRVVSVLPVLHRDWLNGKEYKCKVSNKALPKPIEKTISKAKGQRREPQVYTLPPSREEMTKNQVSLTCLVKGFYPSDIAVEWESNGQPENNYKTTPPVLDSDGSFFLYSKLTVDKSRWQQGNVFSCSVMHEALHAHYTRKELSLSP light: DIVMTQSPATLSLSPGERATLSCTTSQSVYHENWLSWFQQKPGQPPKLLIYWASTLAYGVPSRFSGSGSGTDFTLTISSLQPEDAATYYCAGGYGGGRYAFGQGTKVEIKRTVAAPSVFIFPPSDEQLKSGTASVVCLLNNFYPREAKVQWKVDNALQSGNSQESVTEQDSKDSTYSLSSTLTLSKADYEKHKVYACEVTHQGLSSPVTKSFNRGEC |
| 0.001 | 3.9 | 0.04 | 0.008 | 610 | 1.2 | 28 | 120 | MS103240H795-TT67/M103202L1045-SK1 (antibody) heavy: QVQLVESGGGLVQPGGSLRLSCAVSGIDLSHDDISWVRQAPGKGLEWVSIISYAGSTYYASWAKGRLTISKDTSKNQVVLTMTNMDPVDTATYYCARGVPAYSHGGDLWGQGTLVTVSSASTKGPSVFPLAPSSKSTSGGTAALGCLVKDYFPEPVTVSWNSGALTSGVHTFPAVLQSSGLYSLSSVVTVPSSSLGTQTYICNVNHKPSNTKVDKKVEPKSCDKTHTCPPCPAPELLGGDSVFLFPPKPKDVLMISRTPEVTCVVVDVSHEDPEVKFNWYVDGVEVHNAKTKPREEQYNSTYRVVSVLPVLHRDWLNGKEYKCKVSNKALPKPIEKTISKAKGQRREPQVYTLPPSREEMTKNQVSLTCLVKGFYPSDIAVEWESNGQPENNYKTTPPVLDSDGSFFLYSKLTVDKSRWQQGNVFSCSVLHEALHAHTTRKELSLSP light: DIVMTQSPATLSLSPGERATLSCTTSQSVYHENWLSWFQQKPGQPPKLLIYWASTLAYGVPSRFSGSGSGTDFTLTISSLQPEDAATYYCAGGYGGGRYAFGQGTKVEIKRTVAAPSVFIFPPSDEQLKSGTASVVCLLNNFYPREAKVQWKVDNALQSGNSQESVTEQDSKDSTYSLSSTLTLSKADYEKHKVYACEVTHQGLSSPVTKSFNRGEC |
| 0.002 | 15.7 | 0.05 | 0.028 | 400 | 0.3 | 23 | 35 | MS103240H795-TT33/M103202L1045-SK1 (antibody, human IgG1, kappa, copies: 2 + 2) heavy: QVQLVESGGGLVQPGGSLRLSCAVSGIDLSHDDISWVRQAPGKGLEWVSIISYAGSTYYASWAKGRLTISKDTSKNQVVLTMTNMDPVDTATYYCARGVPAYSHGGDLWGQGTLVTVSSASTKGPSVFPLAPSSKSTSGGTAALGCLVKDYFPEPVTVSWNSGALTSGVHTFPAVLQSSGLYSLSSVVTVPSSSLGTQTYICNVNHKPSNTKVDKKVEPKSCDKTHTCPPCPAPEYLGGDSVFLFPPKPKDVLMISRTPEVTCVVIDVSHEDPEVKFNWYVDGVEVHNAKTKPREEQYNSTYRVVSVLPVLHRDWLNGKEYKCKVSNKALPKPIEKTISKAKGQPREPQVYTLPPSREEMTKNQVSLTCLVKGFYPSDIAVEWESNGQPENNYKTTPPVLDSDGSFFLYSKLTVKKSRWQQGNVFSCSVMHEALHNHYTQKSLSLSP light: DIVMTQSPATLSLSPGERATLSCTTSQSVYHENWLSWFQQKPGQPPKLLIYWASTLAYGVPSRFSGSGSGTDFTLTISSLQPEDAATYYCAGGYGGGRYAFGQGTKVEIKRTVAAPSVFIFPPSDEQLKSGTASVVCLLNNFYPREAKVQWKVDNALQSGNSQESVTEQDSKDSTYSLSSTLTLSKADYEKHKVYACEVTHQGLSSPVTKSFNRGEC |
| 0.001 | 4.9 | 0.02 | 0.005 | 480 | 0.96 | 61 | 210 | MS103240H795-TT68/M103202L1045-SK1 (antibody, copies: 2 + 2) heavy: QVQLVESGGGLVQPGGSLRLSCAVSGIDLSHDDISWVRQAPGKGLEWVSIISYAGSTYYASWAKGRLTISKDTSKNQVVLTMTNMDPVDTATYYCARGVPAYSHGGDLWGQGTLVTVSSASTKGPSVFPLAPSSKSTSGGTAALGCLVKDYFPEPVTVSWNSGALTSGVHTFPAVLQSSGLYSLSSVVTVPSSSLGTQTYICNVNHKPSNTKVDKKVEPKSCDKTHTCPPCPAPELLGGDSVFLFPPKPKDVLMISRTPEVTCVVVDVSHEDPEVKFNWYVDGVEVHNAKTKPREEQYNSTYRVVSVLPVLHRDWLNGKEYKCKVSNKALPKPIEKTISKAKGQPREPQVYTLPPSREEMTKNQVSLTCLVKGFYPSDIAVEWESNGQPENNYKTTPPVLDSDGSFFLYSKLTVKKSRWQQGNVFSCSVMHEALHAHYTRKELSLSP light: DIVMTQSPATLSLSPGERATLSCTTSQSVYHENWLSWFQQKPGQPPKLLIYWASTLAYGVPSRFSGSGSGTDFTLTISSLQPEDAATYYCAGGYGGGRYAFGQGTKVEIKRTVAAPSVFIFPPSDEQLKSGTASVVCLLNNFYPREAKVQWKVDNALQSGNSQESVTEQDSKDSTYSLSSTLTLSKADYEKHKVYACEVTHQGLSSPVTKSFNRGEC |

Reference: patent US20200317768A1 (published 2020)
